Two proteins from publication PMC5107993, “Glutathione-conjugating and membrane-remodeling activity of GDAP1 relies on amphipathic C-terminal domain” (Scientific Reports, 2016) can be followed below.

This data set deals with the molecule itself. In words: SEC; Superdex 200 10/300 in 20 mM Tris pH 8.0, 100 mM NaCl, 1 mM DTT, 1 mM EDTA; peak fractions re-chromatographed under identical conditions; monomer to dimer.

B1: GDAP1 T318X-6xHis (domain or fragment, human, UniProt Q8TB36 1-317, looked up)
chain: MAERQEEQRGSPPLRAEGKADAEVKLILYHWTHSFSSQKVRLVIAEKALKCEEHDVSLPLSEHNEPWFMRLNSTGEVPVLIHGENIICEATQIIDYLEQTFLDERTPRLMPDKESMYYPRVQHYRELLDSLPMDAYTHGCILHPELTVDSMIPAYATTRIRSQIGNTESELKKLAEENPDLQEAYIAKQKRLKSKLLDHDNVKYLKKILDELEKVLDQVETELQRRNEETPEEGQQPWLCGESFTLADVSLAVTLHRLKFLGFARRNWGNGKRPNLETYYERVLKRKTFNKVLGHVNNILISAVLPTAFRVAKKRAP
notes: GDAP1, human (recombinant human GDAP1), truncated by a stop in place of T318 (T318X), lacks the TMD, keeps HD1; cloned into vector pFL of the MultiBac system; the methods print the name as T3188X; also called GDAP1 T3188X; not shown: His6, C-terminal, kept
The term stoichiometry N denotes a count of units in the complex or per binding partner. Turning to B1, the “stoichiometry N” value amounted to 2.

B2: GDAP1 T288X-6xHis (domain or fragment, human, UniProt Q8TB36 1-287, looked up)
chain: MAERQEEQRGSPPLRAEGKADAEVKLILYHWTHSFSSQKVRLVIAEKALKCEEHDVSLPLSEHNEPWFMRLNSTGEVPVLIHGENIICEATQIIDYLEQTFLDERTPRLMPDKESMYYPRVQHYRELLDSLPMDAYTHGCILHPELTVDSMIPAYATTRIRSQIGNTESELKKLAEENPDLQEAYIAKQKRLKSKLLDHDNVKYLKKILDELEKVLDQVETELQRRNEETPEEGQQPWLCGESFTLADVSLAVTLHRLKFLGFARRNWGNGKRPNLETYYERVLKRK
notes: GDAP1, human (recombinant human GDAP1), truncated by a stop in place of T288 (T288X), lacks TMD and HD1; cloned into vector pFL of the MultiBac system; not shown: His6, C-terminal, kept
B2: the “stoichiometry N” value was 2.
